Measured values as given in the supplement of paper PMC9732359.
± gives the uncertainty stated by the source.

experiment: protein stability index of a GFP-peptide fusion (yeast GPS) (PSI 1-4); higher = more stable; sorted into four equal gates, so the index is relative within each strain; conditions: pdr5∆
Procedure, shortened: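 Tiled yeast protein peptides of 17 residues were each joined downstream of GFP, on plasmids that also express Cherry. The pooled library was maintained in yeast, and mid-log cultures in leucine-free medium were sorted into four equal gates on the GFP/Cherry ratio. Plasmids from every gate were amplified by PCR and sequenced on Illumina, with barcodes linking reads to strains. The protein stability index of a peptide is its gate-number-weighted read frequency summed over the gates.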

Sequence	protein stability index
VYYSKRGFKVGLVCADT [SRP54]	2.29 ± 0.073
WDLLPEPIRFLPNQFPL [SWI1]	2.58 ± 0.071
WDLSVEDALYLGKRSIL [PRE2]	3.34 ± 0.056
WGHPTRMLLNLCKSATT [BRR2]	1.55 ± 0.046
WIVVLPWFWLLPLWHLL [POP1]	1.21 ± 0.057
WKRQISYFLKLLGNCYS [SRB8]	1.82 ± 0.042
WNKRDFMAFINACAKYG [ISW2]	1.24 ± 0.092
WQYIVIDEAHRIKNEQS [ISW2]	1.64 ± 0.08
WREQLRNRDIALFQPPN [ROX3]	2.95 ± 0.066
WRKDAQGNYPTTSYIKE [DPB4]	2.88 ± 0.069
WSFDLPEMSNLYRLSTP [PRP8]	2.71 ± 0.04
WTSTQRHHWQYTKASLA [SSN8]	1.38 ± 0.095
WVQLVQIIVTDGKLEPS [YJL039C/NUP192]	1.32 ± 0.085
WVYKTKGDGMTSAVASI [RPN1]	3.14 ± 0.19
WYIEKVIRIPMQENDKI [CSI1]	2.78 ± 0.1
WYKVAKNVGNKSPEQCI [SWI3]	3.27 ± 0.07
YAKDILQKEFLPHITQL [RPB2]	1.8 ± 0.04
YALFLKALRRKIYINLA [SSN2]	1.31 ± 0.067
YATKLSKFTKIPPTFDK [MED4]	3.28 ± 0.084
YCDSMGRPQRKMMSFQA [RPB5]	3.19 ± 0.13
YCHEKELTIIKNPRVTK [CSN9]	2.29 ± 0.18
YCKGKTCRKHTQHKVTQ [RPL42A]	3.06 ± 0.17
YCSGNIYDFHKMENLMR [YJL039C/NUP192]	2.79 ± 0.059
YDGVERVSLQDIKDFAD [QCR2]	2.75 ± 0.1
YDLMAPNGHISTKKIQV [YMR129W/POM152]	2.06 ± 0.07
YDLNFKLRETLVKIDDL [SMC1]	3.13 ± 0.13
YDTTPLLDTNSLEENAM [SKI6]	2.96 ± 0.082

Sequence	protein stability index
YENKQLYFPDDYPFTQL [POP1]	2.99 ± 0.039
YESRNVAKRRFEYSKYR [RRP6]	3.4 ± 0.087
YFFYASRPEYSCTFWSD [YJL039C/NUP192]	1.52 ± 0.084
YGFSNKEYISRLWHTLK [SNF5]	2.56 ± 0.21
YGNPTSKESWRYDWYQP [RTT102]	2.27 ± 0.082
YGTRPLVLPPVVTSSVA [SNF2]	2.06 ± 0.071
YGYFSVGKRVPIVEDRR [SIR4]	2.28 ± 0.1
YHLLNYDPIKRIDAFNA [SSN3]	1.77 ± 0.04
YHNKHMMCDFGTGNNNK [DIB1]	2.86 ± 0.055
YHSGRLLIQGPKASSAK [ITC1]	3.29 ± 0.078
YILANHYLSRVLSDQVG [YJL039C/NUP192]	2.98 ± 0.078
YILRYLHANGASFFFMV [COB]	1.27 ± 0.033
YITARIMAKRPFDKKSN [FAS1]	2.79 ± 0.078
YKEQIIQGFYWAVKEGP [SNU114]	2.38 ± 0.064
YKMVQEQLSKQRDLYKR [SMC2]	3.03 ± 0.087
YKNLDRGFSKDLKSKAD [RRP6]	3.27 ± 0.15
YKPLIEERMGQIENLNE [SMC4]	3.34 ± 0.098
YKQAMNETSEQLVPIRL [SNF5]	3.12 ± 0.15
YKVDNMTRILPQQSRYI [RPN2]	3.03 ± 0.12
YKVMHQIRACKDLKHII [PRP8]	2.41 ± 0.046
YLAENPDPNFENSIGYN [PRP8]	3.08 ± 0.061
YLERIELSFYILYSFKL [YML103C/NUP188]	1.37 ± 0.044
YLIVAGVDPTGSHLFSI [PUP1]	2.24 ± 0.085
YLLASLKDSKDFDESLK [RPN9]	2.82 ± 0.088
YLLENNQVGTDELILPL [YDL116W/NUP84]	3.06 ± 0.11
YLMDSKNVRTRIKLATT [RRI1]	2.07 ± 0.073
YMDSMNEKVAVMRNTYN [GAL11]	3.24 ± 0.062

Sequence	protein stability index
YNGRGARERKTATYNDN [SNF2]	2.54 ± 0.074
YNVCDTSKSLVKRYRLA [SIN4]	2.81 ± 0.058
YPFDKLESWWLVLGEVS [BRR2]	3.23 ± 0.15
YPFLLSFLGEAKSMAFL [YML103C/NUP188]	2.35 ± 0.067
YPFVTNDDIEWMLSICV [YJR042W/NUP85]	2.56 ± 0.061
YQKNKPYPKSRYNRAVP [RPL10]	3.06 ± 0.045
YRLMIKRLNFSFVGDYM [GRR1]	1.41 ± 0.052
YSAAKKIPDTYTANTSA [YAR002W/NUP60]	2.19 ± 0.082
YSDIGGLESQIQEIKES [RPT2]	1.97 ± 0.08
YSLHQIRKDPNNLSNQL [CSE2]	2.66 ± 0.071
YSRILKSMGRKCFDDIE [YCG1]	2.35 ± 0.12
YSSKPYKVDNMTRILPQ [RPN2]	2.88 ± 0.072
YTNSVELRSLSKKDFKI [YMR129W/POM152]	2.64 ± 0.058
YTRYLDRIYMLFHFEED [PRP8]	1.4 ± 0.051
YVIKALQSLTSKGYVKT [RPS10A]	1.74 ± 0.072
YVKAVSDKAQLNVVMKN [SMC4]	2.07 ± 0.063
YVLYAKIVVLSRTGPVF [RRP43]	1.15 ± 0.077
YVSALKRINKFLDSVHK [POP7]	1.56 ± 0.037
YVSQIRKHKRVSPNAAP [YAR002W/NUP60]	1.64 ± 0.053
YVTKPMVNESDGVTHAL [RPB2]	3.28 ± 0.087
YWTQYLGLFIHKISFSG [YJL039C/NUP192]	1.8 ± 0.058
YYGCLENDHERGFFHLN [CSN12]	3.24 ± 0.068
YYKNFHNSVKRYQIMLP [SNM1]	1.36 ± 0.059
YYQRLRHMVDDKIHARA [RPB2]	2.84 ± 0.28
YYVPYSKLMPVLKSSVY [RPC82]	1.85 ± 0.079
